{"source": "paper PMC12273641", "about": "“A cryo-electron microscopy structure of yeast Pex5 in complex with a cargo uncovers a novel binding interface” (Journal of Cell Science, 2025)", "binders": {"B1": {"name": "FLAG-Eci1 wild type (Saccharomyces cerevisiae Δ3,Δ2-enoyl-CoA isomerase 1) (natural protein, UniProt Q05871 1-280, looked up)", "chain": "MSQEIRQNEKISYRIEGPFFIIHLMNPDNLNALEGEDYIYLGELLELADRNRDVYFTIIQSSGRFFSSGADFKGIAKAQGDDTNKYPSETSKWVSNFVARNVYVTDAFIKHSKVLICCLNGPAIGLSAALVALCDIVYSINDKVYLLYPFANLGLITEGGTTVSLPLKFGTNTTYECLMFNKPFKYDIMCENGFISKNFNMPSSNAEAFNAKVLEELREKVKGLYLPSCLGMKKLLKSNHIDAFNKANSVEVNESLKYWVDGEPLKRFRQLGSKQRKHRL", "notes": "Eci1 (Δ3,Δ2-enoyl-CoA isomerase 1), Saccharomyces cerevisiae, wild type, M1-L280, ends in the PTS1 tripeptide 278HRL280; cloned into the first open reading frame of pACYCDuet-1; A TEV cleavage site follows the N-terminal FLAG tag; no TEV cleavage is described; Hexamer by cryo-EM; also called Eci1 WT; Eci1 (WT); source: E. coli BL21(DE3): co-expressed with Pex5, in lysate (pull-down); purified …"}}, "key": {"[1]": {"target": "T1, Pex5 (full-length Saccharomyces cerevisiae Pex5, 1-612, His-Sumo fusion cleaved off) (Saccharomyces cerevisiae, UniProt P35056 1-612)", "T1 construct": "Pex5, peroxisomal PTS1 cargo factor, Saccharomyces cerevisiae, full-length (1-612), cloned into pET28-bdSumo; only L276-F612 is resolved in the cryo-EM map; also called yeast Pex5; full-length yeast Pex5; source: for cryo-EM co-expressed with Eci1 and co-purified (Ni beads, elution by bdSumo protease, SEC); not shown: His tag, N-terminal, cleaved; bdSumo, N-terminal, cleaved", "T1 sequence (looked up)": "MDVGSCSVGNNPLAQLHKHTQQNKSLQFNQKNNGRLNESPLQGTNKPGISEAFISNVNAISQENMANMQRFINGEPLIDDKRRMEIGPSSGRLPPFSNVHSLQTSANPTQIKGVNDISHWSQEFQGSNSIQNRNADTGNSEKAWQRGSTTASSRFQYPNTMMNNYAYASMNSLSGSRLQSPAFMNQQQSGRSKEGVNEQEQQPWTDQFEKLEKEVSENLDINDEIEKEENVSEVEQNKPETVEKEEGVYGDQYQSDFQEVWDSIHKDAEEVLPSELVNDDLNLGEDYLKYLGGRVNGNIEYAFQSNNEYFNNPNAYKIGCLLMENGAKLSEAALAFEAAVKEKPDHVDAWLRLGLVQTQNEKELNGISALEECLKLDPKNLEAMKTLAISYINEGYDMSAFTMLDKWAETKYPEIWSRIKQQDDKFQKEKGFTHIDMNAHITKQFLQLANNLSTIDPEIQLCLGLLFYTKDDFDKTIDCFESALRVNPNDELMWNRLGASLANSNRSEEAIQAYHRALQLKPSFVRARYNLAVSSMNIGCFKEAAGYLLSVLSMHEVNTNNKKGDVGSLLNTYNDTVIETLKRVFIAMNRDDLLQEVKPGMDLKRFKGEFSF", "test": "cryo-EM structure; single-particle cryo-EM of the co-expressed, co-purified Pex5–Eci1 complex (2 mg/ml, in PBS); 2.7 Å global, 2.9 Å local refinement of Pex5 and the interface", "conditions": "both partners purified"}, "[2]": {"target": "the molecule itself", "test": "cryo-EM structure; single-particle cryo-EM of the co-expressed, co-purified Pex5–Eci1 complex (2 mg/ml, in PBS); 2.7 Å global, 2.9 Å local refinement of Pex5 and the interface"}}, "data": [{"binder": "B1", "values": [{"measurement": "stoichiometry N", "setting": "[1]", "value": 6, "unit": "Eci1 per Pex5"}, {"measurement": "stoichiometry N", "setting": "[2]", "value": 6}]}]}
